Read-outs that look alike come from different tables or passages of the source.
B1: Q62F10 (VHH, not shown: small tags and cut ends)
VHH: EVQLVESGGGLVQPGGSLRLSCVASGFDFNIHWMYWVRQAPGKELEWVAEINTNGLITVYPDSVKGRFTISRDNAKNTLFLQMNNLKFEDTAVYYCTNTQNGKTKGQGTQVTVSS
notes: Family 2; purified from E. coli
B2: Q65C7 (VHH, not shown: small tags and cut ends)
VHH: EVQLVESGGGLVQPGRSLRLSCTASGFDFSSHWMYWVRQAPGKGLEWVSEINTNGLITKYADFVKGRFTVSRDNAANTLYLEITRLEPEDTALYYCARNQKGLNKGQGTQVTVSS
notes: Family 1; purified from E. coli
B3: Q62F2 (VHH, not shown: small tags and cut ends)
VHH: QVQLVESGGGLVQPGGSLRLSCAASGFDFNSHWMYWVRQAPGKGLEWVSEINTNGLITNYVDSVKGRFTVSRDNAANTLYLEMTSLKPEDTALYYCARNQKGLNKGQGTQVTVSS
notes: as for B2
B4: Q65D1 (VHH, not shown: small tags and cut ends)
VHH: EVQLVESGGGLVQPGGSLRLSCTASGFDFDNHWMCWVRQAPGKGLEWVSEINTNGLITKYADFVKGRFTVSRDNAANTLYLQITRLKPEDTALYYCARNQKGLNKGQGTQVTVSS
notes: as for B2
B5: Q65D3 (VHH, not shown: small tags and cut ends)
VHH: EVQLVESGGGLVQPGGSLRLSCVASGFDFSSHWMYWVRQAPGKGLEWVSEINTNGLITKYADSTKGRFTVSRDNAANMLNLEMTSLEPEDTALYYCARNERGLNKGQGTQVTVSS
notes: as for B2
B6: Q65B1 (VHH, not shown: small tags and cut ends)
VHH: EVQLVESGGGLVQPGGSLKLSCAASGFDFSSHWMYWVRQAPGKELEWLSEINTNGLITKYGDSVKGRFTVSRNNAANKMYLELTRLEPEDTALYYCARNQKGLNKGQGTQVTVSS
notes: Family 1; purified from E. coli; parent of the ID series
B7: ID8F-EV (VHH, not shown: small tags and cut ends)
VHH: EVQLVESGGGLVQPGGSLKLSCAASGFDFSSHWMYWVRQAPGKELEWLSEINTNGLITHYGDSVKGRFTVSRNNAANKMYLELTRLEPEDTALYYCARNQKGLNKGQGTQVTVSS
B8: ID9F-EV (VHH)
VHH: EVQLVESGGGLVQPGGSLKLSCAASGFDFSSHWMYWVRQAPGKELEWLSEINTNGLITKYGDSVHGRFTVSRNNAANKMYLELTRLEPEDTALYYCARNQKGLNKGQGTQVTVSS
notes: Q65B1 monomer mutant with His-tag; not shown: C-terminal His-tag (c-myc-6His or Flag-6His)
B9: ID13F-EV (VHH)
VHH: EVQLVESGGGLVQPGGSLKLSCAASGFDFSSHWMYWVRQAPGKELEWLSEINTNGLITKYGDSVKGRFTVSRNNAANKMYLELTRLEPEDTALYYCARNQHGLNKGQGTQVTVSS
notes: as for B8
B10: ID15F-EV (VHH)
VHH: EVQLVESGGGLVQPGGSLKLSCAASGFDFSSHWMYWVRQAPGKELEWLSEINTNGLITKYGDSVKGRFTVSRNNAANKMYLELTRLEPEDTALYYCARNQHGLNHGQGTQVTVSS
notes: as for B8
B11: ID34F (VHH)
VHH: EVQLVESGGGLVQPGGSLKLSCAASGFDFSSHWMYWVRQAPGKELEWLSEINTNGLITHYGDSVKGRFTVSRNNAANKMYLELTRLEPEDTALYYCARNQHGLNKGQGTQVTVSS
B12: ID38F (VHH)
VHH: DVQLVESGGGLVQPGGSLKLSCAASGFDFSSHWMYWVRQAPGKELEWLSEINTNGLITHYGDSVKGRFTVSRNNAANKMYLELTRLEPEDTALYYCARNQHGLNKGQGTQVTVSS
notes: Q65B1 with N-terminal DVQLV, K59H and K101H; no His-tag; also called ID38F (S. cerevisiae-produced)
B13: Q62E10 (VHH, not shown: small tags and cut ends)
VHH: QVQLVESGGGLVQPGGSLRLSCTTSGLDFGIHWMYWFRQAPGKELEWVAEINTNALITKYADSVKGRFTISRDNAKNTLFLQMNDLKSEDTAVYYCSNTQNGAAKGQGVQVTVSS
notes: as for B1
B14: Q65A3 (VHH, not shown: small tags and cut ends)
VHH: EVQLVESGGGLVQPGGSLRPSCTTSGLDFGIHWMYWFRQAPGKELEWVAEINTNALITKYADSVKGRFTISRDNAKNTLFLQMNDLKSEDTAVYYCSNTQNGAAKGQGVQVTVSS
notes: as for B1
B15: Q65E12 (VHH, not shown: small tags and cut ends)
VHH: EVQLVESGGGLVQPGGSLRLSCSASGFDFSIHWMYWVRQAPGKELEWVAEINTNGLITLYADSVKGRFTASRDNAKNALFLQMNDLKFEDTAVYYCAKSRNGAAGGQGTQVTVSS
notes: as for B1
B16: Q65F6 (VHH, not shown: small tags and cut ends)
VHH: EVQLVESGGGLVQPGGSLRLSCTASGFDFGIHWMYWVRQAPGKELEWVAEINTNGLITLYSDSVRGRFTASRDNANNALFLQMNDLKFEDTAVYYCAKSRNGAAKGQGTQVTVSS
notes: as for B1
B17: Q62F11 (VHH, not shown: small tags and cut ends)
VHH: QVQLVESGGGLVQPGGSLRLSCAASGFSFSDYVMGWFRQAPGKEREFVGFIRWDGLVTRYADAVKGRFTISRDNARNTLSLQTIGLLAEDTAVYYCAASGGGSGPVNAGSYEYWGQGTQVTVSS
notes: Neither Family 1 nor Family 2; purified from E. coli
B18: ID22F (VHH)
chain: EVQLVESGGGLVQPGGSLKLSCAASGFDFSSHWMYWVRQAPGKELEWLSEINTNGLITKYGDSVKGRFTVSRNNAANKMYLELTRLEPEDTALYYCARNQKGLNKGQGTQVTVSSGGGGSGGGGSGGGGSGGGGSGGGGSGGGGSEVQLVESGGGLVQPGGSLKLSCAASGFDFSSHWMYWVRQAPGKELEWLSEINTNGLITKYGDSVKGRFTVSRNNAANKMYLELTRLEPEDTALYYCARNQKGLNKGQGTQVTVSS

Legend:
soluble human TNF-alpha [1] = target: T1, soluble human TNF-alpha (human, UniProt P01375 77-233); experiment: cell-based or functional assay
T1 sequence (P01375 77-233 limits assumed): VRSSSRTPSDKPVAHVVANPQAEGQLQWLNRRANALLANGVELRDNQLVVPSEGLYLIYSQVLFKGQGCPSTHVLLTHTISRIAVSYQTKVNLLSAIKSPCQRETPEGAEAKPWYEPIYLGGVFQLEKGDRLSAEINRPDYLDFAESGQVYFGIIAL

[2] = target: T2, soluble cynomolgus monkey TNF-alpha (cynomolgus monkey, UniProt P79337 77-233); experiment: cell-based or functional assay
T2 sequence (P79337 77-233 limits assumed): as the sequence (P01375 77-233 limits assumed) above, with L37V, R44T, T72N, R138L counted along it

[3] = target: T2, soluble cynomolgus monkey TNF-alpha; experiment: competition ELISA: VHH mixed with cynomolgus TNF-alpha, binding to coated etanercept (TNFR2-Fc)
Experimental: (§1) Variable domains were diluted and mixed with either human or cynomolgus monkey TNF-alpha (1.25 ng/ml) to allow binding before adding to the ELISA plates.

soluble human TNF-alpha [4] = target: T1, soluble human TNF-alpha; experiment: competition ELISA: VHH mixed with human TNF-alpha, binding to coated etanercept (TNFR2-Fc)
Experimental: as §1

[5] = target: T3, non-cleavable transmembrane form of human TNF-alpha on CHO cells (mTNF-alpha-CHO) (human, UniProt P01375 1-233); experiment: cell-based or functional assay
T3 sequence (P01375 whole entry): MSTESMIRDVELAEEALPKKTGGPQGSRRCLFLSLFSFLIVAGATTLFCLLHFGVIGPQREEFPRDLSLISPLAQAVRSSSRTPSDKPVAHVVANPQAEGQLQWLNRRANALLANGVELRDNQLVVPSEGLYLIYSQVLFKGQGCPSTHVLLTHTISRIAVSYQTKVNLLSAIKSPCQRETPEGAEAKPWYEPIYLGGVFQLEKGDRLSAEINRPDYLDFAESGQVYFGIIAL

soluble human TNF-alpha [6] = target: T1, soluble human TNF-alpha; experiment: cell-based or functional assay; remark: listed apart in the source
[7] = target: T2, soluble cynomolgus monkey TNF-alpha; experiment: cell-based or functional assay; remark: listed apart in the source
[8] = target: T3, non-cleavable transmembrane form of …; experiment: cell-based or functional assay; remark: listed apart in the source
soluble human TNF-alpha [9] = target: T1, soluble human TNF-alpha; experiment: cell-based or functional assay; remark: listed apart in the source
[10] = target: T3, non-cleavable transmembrane form of …; experiment: cell-based or functional assay; remark: listed apart in the source
soluble human TNF-alpha [11] = target: T1, soluble human TNF-alpha; experiment: competition ELISA: VHH mixed with h-TNF-alpha, binding to coated etanercept
soluble human TNF-alpha [12] = target: T1, soluble human TNF-alpha; experiment: competition ELISA: VHH mixed with TNF-alpha 2.5 ng/ml, binding to coated hTNFR1
Experimental: Plate was washed in PBST using a plate washer and blocked for 1 hour in 200 ul 1% BSA per well. A threefold dilution series beginning at 30 nM for each antibody was incubated with 2.5 ng/ml TNF-alpha for 1 hour, 50 ul/well of which was then added to the washed plate and incubated for 5 hours. The plate was washed and incubated with 50 ul/well of a 1/1000 dilution of biotinylated rabbit alpha-hTNF (Peprotech P31AB7) in 1% BSA and incubated overnight at 4 degrees C. The plate was washed and incubated with 50 ul/well of a 1/1000 dilution of mAvidin HRP in 1% BSA for 1 hour before a final wash and incubation with 100 ul/well TMB substrate. The reaction was stopped after 20 minutes with 50 ul/well 0.5 M H2504 and absorbance was read at 450 nm. EC50 values were calculated from ELISA data in GraphPad Prism.

soluble human TNF-alpha [13] = target: T1, soluble human TNF-alpha; experiment: cell-based or functional assay; remark: listed apart in the source

Row | Binder | EC50 [3] [nM] | EC50 (soluble human TNF-alpha [4]) [nM] | Inhibition of mTNF-alpha-induced HEK-NF-kB SEAP Reporter (EC50 = nM) [5] [nM] | Inhibition of human TNF-induced L929 cell cytotoxicity EC50 (soluble human TNF-alpha [6]) [nM] | Inhibition of cynomolgus TNF-induced L929 cell cytotoxicity EC50 [7] [nM] | further results
1 | B1 | 108 | 30 |  |  |  | Inhibition of human TNF-induced L929 cell cytotoxicity EC50 (soluble human TNF-alpha [1]): 2 nM; Inhibition of cynomolgus TNF-induced L929 cell cytotoxicity EC50 [2]: 1.3 nM
2 | B2 | 0.32 | 0.35 | 14.1 | 0.15 | 0.03 | 
3 | B3 | 1.3 | 0.7 |  |  |  | Inhibition of human TNF-induced L929 cell cytotoxicity EC50 (soluble human TNF-alpha [1]): 1 nM; Inhibition of cynomolgus TNF-induced L929 cell cytotoxicity EC50 [2]: 0.8 nM; Inhibition of mTNF-alpha-induced HEK-NF-kB SEAP Reporter (EC50 = nM) [8]: 34 nM
4 | B4 | 0.32 | 0.37 | 15.3 | 0.1 | 0.06 | 
5 | B5 | 0.45 | 0.33 | 16 | 0.15 | 0.1 | EC50, HEK-293 NF-kB/SEAP reporter cells, human soluble TNF-alpha (soluble human TNF-alpha [9]): ~0.6 nM
6 | B6 | 0.45 | 0.29 | 10.9 | 0.04 | 0.01 | EC50, HEK-293 NF-kB/SEAP reporter cells, human soluble TNF-alpha (soluble human TNF-alpha [9]): ~0.2 nM; mTNF-alpha neutralisation EC50 (nM), NF-kB/SEAP HEK-293 cellular reporter assay [10]: 8.72 nM
7 | B7 |  |  |  |  |  | mTNF-alpha neutralisation EC50 (nM), NF-kB/SEAP HEK-293 cellular reporter assay [10]: 7.69 nM
8 | B8 |  |  |  |  |  | binding result (soluble human TNF-alpha [11]): binds
9 | B9 |  |  |  |  |  | binding result (soluble human TNF-alpha [11]): binds
10 | B10 |  |  |  |  |  | binding result (soluble human TNF-alpha [11]): binds
11 | B11 |  |  |  |  |  | mTNF-alpha neutralisation EC50 (nM), NF-kB/SEAP HEK-293 cellular reporter assay [10]: 4.71 nM
12 | B12 |  |  |  |  |  | EC50 (soluble human TNF-alpha [12]): 0.61 nM; mTNF-alpha neutralisation EC50 (nM), NF-kB/SEAP HEK-293 cellular reporter assay [10]: 5.16 nM; EC50 (nM), neutralisation of human soluble TNF-alpha-induced cytotoxicity in L929 cells (soluble human TNF-alpha [13]): 0.127 nM
13 | B13 | 1.2 | 0.8 |  |  |  | Inhibition of human TNF-induced L929 cell cytotoxicity EC50 (soluble human TNF-alpha [1]): 0.2 nM; Inhibition of cynomolgus TNF-induced L929 cell cytotoxicity EC50 [2]: < 0.1 nM; Inhibition of mTNF-alpha-induced HEK-NF-kB SEAP Reporter (EC50 = nM) [8]: 80 nM
14 | B14 | 1.1 | 1.3 | 23.9 | 0.15 | 0.04 | 
15 | B15 | 65 | 47 | 174 | 4 | 4 | 
16 | B16 | 24 | 13 | 110 | 1.5 | 1 | 
17 | B17 | 1.4 | 2.3 |  |  |  | Inhibition of human TNF-induced L929 cell cytotoxicity EC50 (soluble human TNF-alpha [1]): 6 nM; Inhibition of cynomolgus TNF-induced L929 cell cytotoxicity EC50 [2]: 1.5 nM; Inhibition of mTNF-alpha-induced HEK-NF-kB SEAP Reporter (EC50 = nM) [8]: 40 nM
18 | B18 |  |  |  |  |  | potency relative to the monomer, soluble TNF-induced HEK293-NF-kB-SEAP reporter assay (soluble human TNF-alpha [9]): ~10 fold

From US20200317769A1 (published 2020)
